Data as given in patent publication US20260226179A1 (MAB DESIGNS, published 2026).
Values joined by “and” are separate entries in the source; they are usually repeats but may differ in a detail not shown here. Equal values may be shown once.

Key:
Test in all cases: cell-based or functional assay
[1] = biological target: T1, human membrane-bound IL-6R subunit alpha (human, UniProt P08887 20-468)
T1 sequence: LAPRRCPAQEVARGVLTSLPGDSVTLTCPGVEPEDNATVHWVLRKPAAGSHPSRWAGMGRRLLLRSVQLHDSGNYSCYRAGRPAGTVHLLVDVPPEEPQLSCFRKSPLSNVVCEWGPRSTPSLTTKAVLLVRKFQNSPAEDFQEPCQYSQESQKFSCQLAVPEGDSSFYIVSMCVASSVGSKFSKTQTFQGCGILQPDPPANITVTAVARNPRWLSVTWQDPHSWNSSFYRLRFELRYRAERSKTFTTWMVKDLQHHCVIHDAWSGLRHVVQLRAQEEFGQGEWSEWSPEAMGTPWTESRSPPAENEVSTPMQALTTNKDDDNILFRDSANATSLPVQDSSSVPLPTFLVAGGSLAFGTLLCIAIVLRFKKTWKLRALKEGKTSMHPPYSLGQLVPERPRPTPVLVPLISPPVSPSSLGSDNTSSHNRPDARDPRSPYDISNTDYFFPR

human soluble IL-6R [2] = biological target: T2, human soluble IL-6R (human, UniProt P08887 20-357)
T2 sequence: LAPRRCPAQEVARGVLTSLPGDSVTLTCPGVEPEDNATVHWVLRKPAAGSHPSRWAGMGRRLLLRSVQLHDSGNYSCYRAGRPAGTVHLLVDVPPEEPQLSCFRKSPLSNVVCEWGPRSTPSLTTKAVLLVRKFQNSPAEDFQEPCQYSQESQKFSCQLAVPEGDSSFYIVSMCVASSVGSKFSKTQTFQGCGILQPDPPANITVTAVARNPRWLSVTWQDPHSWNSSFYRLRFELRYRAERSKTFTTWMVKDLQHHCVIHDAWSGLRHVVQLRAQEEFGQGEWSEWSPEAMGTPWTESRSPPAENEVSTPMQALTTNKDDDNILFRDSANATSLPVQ

human soluble IL-6R [3] = biological target: T2, human soluble IL-6R; remark: listed apart in the source
[4] = biological target: T1, human membrane-bound IL-6R subunit alpha; remark: listed apart in the source
human soluble IL-6R [5] = biological target: T2, human soluble IL-6R; remark: listed apart in the source
human soluble IL-6R [6] = biological target: T3, human soluble IL-6R (human, UniProt P08887 20-357, limits assumed)
T3 sequence: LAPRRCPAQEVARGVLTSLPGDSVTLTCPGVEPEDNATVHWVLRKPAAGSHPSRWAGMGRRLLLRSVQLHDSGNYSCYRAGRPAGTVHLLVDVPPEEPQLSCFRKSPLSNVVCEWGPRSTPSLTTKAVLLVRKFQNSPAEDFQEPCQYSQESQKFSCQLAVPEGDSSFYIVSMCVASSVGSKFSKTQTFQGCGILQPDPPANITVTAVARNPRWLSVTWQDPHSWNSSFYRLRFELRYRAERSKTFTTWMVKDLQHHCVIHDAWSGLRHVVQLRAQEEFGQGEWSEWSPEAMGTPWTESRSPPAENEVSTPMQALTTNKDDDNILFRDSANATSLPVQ

[7] = biological target: Hyper-IL-6 (recombinant fusion protein consisting of IL-6 and soluble IL-6R)

B1: candidate anti-IL-6R Fab clone 09 (Fab, V domains shown)
VH: EVQLVESGGDLVQPGGSLKLSCAASGFTFSNYGMSWVRQTPDKRLELVAAINSNGGSTYYPDSVKGRFTISRDNAKNTLYLQMSSLKSEDTAMYYCARDGNYVSDYWGQGTTLTVSS
VL: DIVLTQSPASLAVSLGQRATISCRASESVDSYGNSFMHWYQQKPGQPPKLLIYLASNLESGVPARFSGSGSRTDFTLTIDPVEADDAATYYCQQNNEDPWTFGGGTKLEIK
Q: How did the “Proliferation in % (Ba/F3_gp130_IL-6R cells, IL-6 + sIL-6R = 100%; combined IL-6 classical and trans signalling; 1% PE)” value [1] turn out when B1 was run?
A: Its value is 91.6%.

Q: What about the “Proliferation in % (Ba/F3_gp130 cells, IL-6 + sIL-6R = 100%; IL-6 trans signalling; 1% PE)” value (human soluble IL-6R [2]) of the same binder?
A: The value was 69.8%.

Q: And the “Classical:trans signalling ratio intracellular signalling” value (human soluble IL-6R [3])?
A: Its value is 2.2 ratio.

Q: What about the “Residual STAT3 phosphorylation in HEK293 (IL-6 + sIL-6R; IL-6 trans signalling; 1% PE)” value (human soluble IL-6R [3]) of the same binder?
A: Its value is 38%.

Q: And the “Residual STAT3 phosphorylation in HEK293_IL-6R (IL-6 + sIL-6R; combined classical and trans signalling; 1% PE)” value [4]?
A: Its value is 83%.

Q: What about the “Classical:trans signalling ratio proliferation” value (human soluble IL-6R [5]) of the same binder?
A: The value was 1.3 ratio.

B2: anti-IL-6R Fab C20 (purified Fab fragment of C20) (Fab, V domains shown)
VH: EVKLMESGGGLVQPGGSLKLSCAASGFTFSNYGMSWVRQTPDKRLELVAIINSNGGSTYYPDSVKGRFTISRDNAKNTLYLQMSSLKSEDTAIYYCARDGNFVSDYWGQGTTLTVSS
VL: DIVLTQSPASLAVSLGQRATISCRASESVDSYGNRFLNWYQQKPGQPPKLLIYLASNLESGVPARFSGSGSRTDFTLTIDPVEADDAATYYCQQNNEDPYTFGGGTKLEIK
Q: Which “IC50 of inhibition of proliferation of Ba/F3_gp130 cells induced by 10 ng/ml IL-6 and 200 ng/ml sIL-6R” value (human soluble IL-6R [6]) does the source give for B2 here?
A: Its value is 159 ng/ml and 3.2 nM.

Q: And the “IC50 of inhibition of proliferation of Ba/F3_gp130 cells induced by 28 ng/ml Hy-IL-6” value [7]?
A: Its value is 98 ng/ml and 1.9 nM.

B3: candidate anti-IL-6R Fab clone 20 (Fab, V domains shown)
VH: EVKLMESGGGLVQPGGSLKLSCAASGFTFSNYGMSWVRQTPDKRLELVAIINSNGGSTYYPDSVKGRFTISRDNAKNTLYLQMSSLKSEDTAIYYCARDGNFVSDYWGQGTTLTVSS
VL: DIVLTQSPASLAVSLGQRATISCRASESVDSYGNRFLNWYQQKPGQPPKLLIYLASNLESGVPARFSGSGSRTDFTLTIDPVEADDAATYYCQQNNEDPYTFGGGTKLEIK
Q: For B3, which “Proliferation in % (Ba/F3_gp130_IL-6R cells, IL-6 + sIL-6R = 100%; combined IL-6 classical and trans signalling; 1% PE)” value [1] is on record?
A: Its value is 81.9%.

Q: What about the “Proliferation in % (Ba/F3_gp130 cells, IL-6 + sIL-6R = 100%; IL-6 trans signalling; 1% PE)” value (human soluble IL-6R [2]) of the same binder?
A: Its value is 36.6%.

Q: What about the “Classical:trans signalling ratio intracellular signalling” value (human soluble IL-6R [3]) of the same binder?
A: The value was 3 ratio.

Q: What about the “Residual STAT3 phosphorylation in HEK293 (IL-6 + sIL-6R; IL-6 trans signalling; 1% PE)” value (human soluble IL-6R [3]) of the same binder?
A: Its value is 32%.

Q: And the “Residual STAT3 phosphorylation in HEK293_IL-6R (IL-6 + sIL-6R; combined classical and trans signalling; 1% PE)” value [4]?
A: The value was 97%.

Q: What about the “Classical:trans signalling ratio proliferation” value (human soluble IL-6R [5]) of the same binder?
A: The value was 2.2 ratio.

B4: candidate anti-IL-6R Fab clone 07 (Fab, V domains shown)
VH: EVKLVESGGGLVQPGGSLKLSCAASGFTFSSYAMSWVRQTADKRLELVANINSNGGSTYYPDSVKGRFTISRDNAKNTLFLQMSSLKSEDTAMYYCAREGYYTMDYWGQGTSVTVSS
VL: DIVLTQSPASLAVSPGQRATISCRASESVDSYGNSFMNWYQQKPGQPPKLLIYLASNLESGVPARFSGSGSRTDFTLTIDPVEADDAATYYCQQNNEDPYTFGGGTKLEIK
Q: Which results are given for B4?
A: Proliferation in % (Ba/F3_gp130_IL-6R cells, IL-6 + sIL-6R = 100%; combined IL-6 classical and trans signalling; 1% PE) [1]: 86.1%; Proliferation in % (Ba/F3_gp130 cells, IL-6 + sIL-6R = 100%; IL-6 trans signalling; 1% PE) (human soluble IL-6R [2]): 55.7%; Classical:trans signalling ratio intracellular signalling (human soluble IL-6R [3]): 2.8 ratio; Residual STAT3 phosphorylation in HEK293 (IL-6 + sIL-6R; IL-6 trans signalling; 1% PE) (human soluble IL-6R [3]): 28%; Residual STAT3 phosphorylation in HEK293_IL-6R (IL-6 + sIL-6R; combined classical and trans signalling; 1% PE) [4]: 77%; Classical:trans signalling ratio proliferation (human soluble IL-6R [5]): 1.5 ratio

B5: candidate anti-IL-6R Fab clone 12 (Fab, V domains shown)
VH: EVKLMESGGGLVQPGGSLKLSCAASGFTFSNYGMSWVRQTPDKRLEWVANINSNGGSTYYPDSVKGRFTISRDNAQNTLYLQMSSLKSEDTAMYYCTRDGNFVSDYWGQGTTLTVSS
VL: DIVLTQSPASLAVSPGQRATISCRASESVDSYGNSFMNWYQQKPGQPPKLLIYLASNLESGVPARFSGSGSRTDFTLTIDPVEADDAATYYCQQNNEDPYTFGGGTKLEIK
Q: B5 was tested. Which “Proliferation in % (Ba/F3_gp130_IL-6R cells, IL-6 + sIL-6R = 100%; combined IL-6 classical and trans signalling; 1% PE)” value [1] did it give?
A: The value was 61.6%.

Q: And the “Proliferation in % (Ba/F3_gp130 cells, IL-6 + sIL-6R = 100%; IL-6 trans signalling; 1% PE)” value (human soluble IL-6R [2])?
A: The value was 47.9%.

Q: What about the “Classical:trans signalling ratio intracellular signalling” value (human soluble IL-6R [3]) of the same binder?
A: Its value is 2.1 ratio.

Q: What about the “Residual STAT3 phosphorylation in HEK293 (IL-6 + sIL-6R; IL-6 trans signalling; 1% PE)” value (human soluble IL-6R [3]) of the same binder?
A: Its value is 42%.

Q: What about the “Residual STAT3 phosphorylation in HEK293_IL-6R (IL-6 + sIL-6R; combined classical and trans signalling; 1% PE)” value [4] of the same binder?
A: The value was 90%.

Q: And the “Classical:trans signalling ratio proliferation” value (human soluble IL-6R [5])?
A: Its value is 1.3 ratio.

B6: candidate anti-IL-6R Fab clone 19 (Fab, V domains shown)
VH: EVKLMESGGGLVQPGGSLKLSCAASGFTFSNYGMSWVRQTPDKRLELVAIMNSKGGSTYYPDSVMGRFTISRDNAKNTLYLQMSSLKSEDTAMYYCARDGYYTMDYWGQGTSVTVSS
VL: DIVLTQSPASLAVSLGQRATISCRASKSVDSFGNSFMHWYQQKPGQSPRLLIFLASNLESGVPARFSGSGSRTDFTLTIDPVEADDAATYYCQQNNEDPYTFGGGTKLEIK
Q: B6 was tested. Which “Proliferation in % (Ba/F3_gp130_IL-6R cells, IL-6 + sIL-6R = 100%; combined IL-6 classical and trans signalling; 1% PE)” value [1] did it give?
A: Its value is 73.3%.

Q: And the “Proliferation in % (Ba/F3_gp130 cells, IL-6 + sIL-6R = 100%; IL-6 trans signalling; 1% PE)” value (human soluble IL-6R [2])?
A: Its value is 53.3%.

Q: What about the “Classical:trans signalling ratio intracellular signalling” value (human soluble IL-6R [3]) of the same binder?
A: The value was 3 ratio.

Q: And the “Residual STAT3 phosphorylation in HEK293 (IL-6 + sIL-6R; IL-6 trans signalling; 1% PE)” value (human soluble IL-6R [3])?
A: The value was 24%.

Q: And the “Residual STAT3 phosphorylation in HEK293_IL-6R (IL-6 + sIL-6R; combined classical and trans signalling; 1% PE)” value [4]?
A: Its value is 72%.

Q: And the “Classical:trans signalling ratio proliferation” value (human soluble IL-6R [5])?
A: The value was 1.4 ratio.
